# B1: TCN-537 (3194_D21) (antibody, V domains shown)
# VH: QVQLQQWGSGLLKPSETLSLTCAVYGGSFRDDYWTWIRQPPGKGLEWIGEINHSGRTNYNPSLKSRVTISVDTSLKQFSLKVISVTAADTAVYYCARGTSHVSRYFDWLPPTNWFDPWGQGTQVTVSS
# VL: DIVLTQSPGTLSLSPGERATLSCRASQSVSSSYLAWYQQKPGQAPRLVMYGAATRATGIPDRFSGSGSGPDFTLTISRLEPEDFAMYYCQQYGNSPITFGQGTRLEIK
# B2: TCN-544 (5082_A19) (antibody, V domains shown)
# VH: QVQLQESGPGLVKPSETLSLTCTVSRGSIGHYFWSWIRQPPGKGLEWIGYISYSGSTKYNPSLRSRVTISVDTSKNQFSLNLNSVTATDTALYYCAREDYDILTGAGPGMEVWGQGTTVTVSS
# VL: QSMLTQPPSASGTPGQRVTISCSGSSSNIGSNTVNWFKHLPGTAPKLLIYRNDLRPSGVPDRFSGSKSGTSASLAISGLQSEDEADYYCATWDDSLNGFYVFGTGTKVTVL
# Tests used:
# Settings in all cases: remark: other sources report otherwise
# [1] = target: recombinant soluble homotrimeric HA of A/Anhui/1/05 (H5N1) (Influenza A virus A/Anhui/1/2005(H5N1)); assay: HA microarray, BCC supernatant
# [2] = target: T1, recombinant soluble homotrimeric HA of A/California/4/09 (H1N1) (Influenza A virus A/California/04/2009(H1N1)); assay: HA microarray, BCC supernatant
# [3] = target: T2, recombinant soluble homotrimeric HA of A/Egypt/3300-NAMRU3/08 (H5N1) (Influenza A virus A/Egypt/3300-NAMRU3/2008(H5N1)); assay: HA microarray, BCC supernatant
# [4] = target: recombinant soluble homotrimeric HA of A/Hong Kong/2108/03 (H9N2) (Influenza A virus A/HK/2108/2003(H9N2)); assay: HA microarray, BCC supernatant
# [5] = target: T3, recombinant soluble homotrimeric HA of A/Indonesia/5/05 (H5N1) (Influenza A virus A/Indonesia/5/2005(H5N1)); assay: HA microarray, BCC supernatant
# [6] = target: T4, recombinant soluble homotrimeric HA of A/Japan/305/57 (H2N2) (Influenza A virus A/Japan/305/1957(H2N2)); assay: HA microarray, BCC supernatant
# [7] = target: T5, recombinant soluble homotrimeric HA of A/Netherlands/219/03 (H7N7) (Influenza A virus A/Netherlands/219/03(H7N7)); assay: HA microarray, BCC supernatant
# [8] = target: T6, recombinant soluble homotrimeric HA of A/Vietnam/1203/04 (H5N1) (Influenza A virus A/VietNam/1203/2004(H5N1)); assay: HA microarray, BCC supernatant
# [9] = target: T7, recombinant soluble homotrimeric HA of A/Wisconsin/67/05 (H3N2) (Influenza A virus A/Wisconsin/67/2005(H3N2)); assay: HA microarray, BCC supernatant
# [10] = target: T8, recombinant soluble homotrimeric HA of A/chicken/Vietnam/NCVD-016/08 (H5N1) (Influenza A virus A/chicken/Vietnam/NCVD-016/2008(H5N1)); assay: HA microarray, BCC supernatant
# [11] = target: T9, recombinant soluble homotrimeric HA of A/duck/Yangzhou/02/05 (H8N4) (Influenza A virus A/duck/Yangzhou/02/2005(H8N4)); assay: HA microarray, BCC supernatant
# [12] = target: T10, recombinant soluble homotrimeric HA of A/northern shoveler/California/HKWF115/07 (H6) (Influenza A virus A/northern shoveler/California/HKWF115/2007(H6N1)); assay: HA microarray, BCC supernatant
# [13] = target: T11, recombinant soluble homotrimeric HA of A/swine/Ontario/01911-2/99 (H4N6) (Influenza A virus A/Swine/Ontario/01911-2/99 (H4N6)); assay: HA microarray, BCC supernatant
# [14] = target: recombinant homotrimeric HA A/California/4/09 H1N1 (Influenza A virus A/California/04/2009(H1N1)); assay: protein microarray, purified IgG, trimeric HA
# [15] = target: recombinant homotrimeric HA A/Egypt/3300-NAMRU3/08 H5N1 (Influenza A virus A/Egypt/3300-NAMRU3/2008(H5N1)); assay: protein microarray, purified IgG, trimeric HA
# [16] = target: recombinant homotrimeric HA A/Hong Kong/156/97 H5N1 (Influenza A virus A/Hong Kong/156/97 (H5N1)); assay: protein microarray, purified IgG, trimeric HA
# [17] = target: recombinant homotrimeric HA A/Hong Kong/2108/03 H9N2 (Influenza A virus A/HK/2108/2003(H9N2)); assay: protein microarray, purified IgG, trimeric HA
# [18] = target: recombinant homotrimeric HA A/Japan/305/57 H2N2 (Influenza A virus A/Japan/305/1957(H2N2)); assay: protein microarray, purified IgG, trimeric HA
# [19] = target: recombinant homotrimeric HA A/Netherlands/219/03 H7N7 (Influenza A virus A/Netherlands/219/03(H7N7)); assay: protein microarray, purified IgG, trimeric HA
# [20] = target: recombinant homotrimeric HA A/South Carolina/1/18 H1N1 (Influenza A virus A/South Carolina/1/18 (H1N1)); assay: protein microarray, purified IgG, trimeric HA
# [21] = target: recombinant homotrimeric HA A/Vietnam/1203/04 H5N1 (Influenza A virus A/VietNam/1203/2004(H5N1)); assay: protein microarray, purified IgG, trimeric HA
# [22] = target: recombinant homotrimeric HA A/Wisconsin/67/05 H3N2 (Influenza A virus A/Wisconsin/67/2005(H3N2)); assay: protein microarray, purified IgG, trimeric HA
# [23] = target: T1, recombinant soluble homotrimeric HA of …; assay: trimeric HA microarray, transfection supernatant set 5
# [24] = target: T2, recombinant soluble homotrimeric HA of …; assay: as above
# [25] = target: recombinant soluble homotrimeric HA of A/Hong Kong/156/97 (H5N1) (Influenza A virus A/Hong Kong/156/97 (H5N1)); assay: as above
# [26] = target: T3, recombinant soluble homotrimeric HA of …; assay: as above
# [27] = target: T4, recombinant soluble homotrimeric HA of …; assay: as above
# [28] = target: T5, recombinant soluble homotrimeric HA of …; assay: as above
# [29] = target: recombinant soluble homotrimeric HA of A/South Carolina/1/18 (H1N1) (Influenza A virus A/South Carolina/1/18 (H1N1)); assay: as above
# [30] = target: T6, recombinant soluble homotrimeric HA of …; assay: as above
# [31] = target: T7, recombinant soluble homotrimeric HA of …; assay: as above
# [32] = target: T8, recombinant soluble homotrimeric HA of …; assay: as above
# [33] = target: T9, recombinant soluble homotrimeric HA of …; assay: as above
# [34] = target: T11, recombinant soluble homotrimeric HA of …; assay: as above
# [35] = target: T12, recombinant soluble homotrimeric HA of A/Solomon Islands/3/06 (H1N1) (Influenza A virus A/Solomon Islands/3/2006(H1N1)); assay: HA microarray, BCC supernatant
# [36] = target: recombinant homotrimeric HA A/Hong Kong/1073/99 H9N2 (Influenza A virus A/Hong Kong/1073/99 (H9N2)); assay: protein microarray, purified IgG, trimeric HA
# [37] = target: recombinant homotrimeric HA A/Solomon Islands/3/06 H1N1 (Influenza A virus A/Solomon Islands/3/2006(H1N1)); assay: protein microarray, purified IgG, trimeric HA
# [38] = target: recombinant homotrimeric HA A/chicken/Vietnam/NCVD-016/08 H5N1 (Influenza A virus A/chicken/Vietnam/NCVD-016/2008(H5N1)); assay: protein microarray, purified IgG, trimeric HA
# [39] = target: recombinant homotrimeric HA A/duck/Yangzhou/02/05 H8N4 (Influenza A virus A/duck/Yangzhou/02/2005(H8N4)); assay: protein microarray, purified IgG, trimeric HA
# [40] = target: recombinant homotrimeric HA A/northern shoveler/California/HKWF115/07 H6N4 (Influenza A virus A/northern shoveler/California/HKWF115/2007(H6N1)); assay: protein microarray, purified IgG, trimeric HA
# [41] = target: recombinant homotrimeric HA A/swine/Ontario/01911-2/99 H4N6 (Influenza A virus A/Swine/Ontario/01911-2/99 (H4N6)); assay: protein microarray, purified IgG, trimeric HA
# [42] = target: T12, recombinant soluble homotrimeric HA of …; assay: trimeric HA microarray, transfection supernatant set 5
# [43] = target: T10, recombinant soluble homotrimeric HA of …; assay: as above
Binder,Trimeric HA Binding: RLU [2] [RLU],Trimeric HA Binding: RLU [6] [RLU],Trimeric HA Binding: RLU [7] [RLU],Trimeric HA Binding: RLU [10] [RLU],Trimeric HA Binding: RLU [11] [RLU],Trimeric HA Binding: RLU [12] [RLU],Trimeric HA Binding: RLU [13] [RLU],Trimeric HA Binding: RLU [14] [RLU],Trimeric HA Binding: RLU [15] [RLU],Trimeric HA Binding: RLU [17] [RLU],Trimeric HA Binding: RLU [18] [RLU],Trimeric HA Binding: RLU [19] [RLU],Trimeric HA Binding: RLU [20] [RLU],Trimeric HA Binding: RLU [23] [RLU],Trimeric HA Binding: RLU [24] [RLU],Trimeric HA Binding: RLU [27] [RLU],Trimeric HA Binding: RLU [28] [RLU],Trimeric HA Binding: RLU [29] [RLU],Trimeric HA Binding: RLU [32] [RLU],Trimeric HA Binding: RLU [33] [RLU],also measured
B1,21900,44700,1050,8620,7830,5210,19,10200,3190,171,19500,729,2840,33800,33500,16200,3650,46800,4480,25500,Trimeric HA Binding: RLU [1]: 335 RLU; Trimeric HA Binding: RLU [3]: 38200 RLU; Trimeric HA Binding: RLU [4]: 147 RLU; Trimeric HA Binding: RLU [5]: 14900 RLU; Trimeric HA Binding: RLU [8]: 80 RLU; Trimeric HA Binding: RLU [9]: 549 RLU; Trimeric HA Binding: RLU [16]: 862 RLU; Trimeric HA Binding: RLU [21]: 5690 RLU; Trimeric HA Binding: RLU [22]: 154 RLU; Trimeric HA Binding: RLU [25]: 10700 RLU; Trimeric HA Binding: RLU [26]: 2420 RLU; Trimeric HA Binding: RLU [30]: 50300 RLU; Trimeric HA Binding: RLU [31]: 1940 RLU; Trimeric HA Binding: RLU [34]: 3280 RLU
B2,281,187,1620,272,464,1690,316,285,2140,145,450,203,148,706,19400,1000,4650,1330,3070,9440,Trimeric HA Binding: RLU [35]: 179 RLU; Trimeric HA Binding: RLU [36]: 534 RLU; Trimeric HA Binding: RLU [37]: 1010 RLU; Trimeric HA Binding: RLU [38]: 402 RLU; Trimeric HA Binding: RLU [39]: 380 RLU; Trimeric HA Binding: RLU [40]: 82 RLU; Trimeric HA Binding: RLU [41]: 154 RLU; Trimeric HA Binding: RLU [42]: 997 RLU; Trimeric HA Binding: RLU [43]: 2920 RLU; Trimeric HA Binding: RLU [34]: 2390 RLU

# Reference: US20150086555A1
